From publication PMC3087119 (Human Mutation, 2011)

Target: the molecule itself
Assay: static light scattering

B1: βA3-crystallin (natural protein)
chain: METQAEQQELETLPTTKMAQTNPTPGSLGPWKITIYDQENFQGKRMEFTSSCPNVSERSFDNVRSLKVESGAWIGYEHTSFCGQQFILERGEYPRWDAWSGSNAYHIERLMSFRPICSANHKESKMTIFEKENFIGRQWEISDDYPSLQAMGWFNNEVGSMKIQSGAWVCYQYPGYRGYQYILECDHHGGDYKHWREWGSHAQTSQIQSIRRIQQ
In the case of B1, the “stoichiometry N” value is reported as 2.
